In patent publication US9816117B2, “Methods, reagents and cells for biosynthesizing compounds” (INVISTA North America S.á r.l., priority 2014, dated 2017):

Columns and labels:
[1] = carboxylate reductase enzyme activity assay (adipate semialdehyde to hexanedial); assay type: biochemical; details: purified enzyme enhanced by sfp gene product; 2 mM adipate semialdehyde; room temperature, 20 min; against empty vector control (FIG. 15)
Method: The N-terminal His-tagged carboxylate reductase of SEQ ID NO 6 (see Example 2, Example 3 and FIG. 9) was assayed using adipate semialdehyde as substrate. The enzyme activity assay was performed in triplicate in a buffer composed of a final concentration of 50 mM HEPES buffer (pH=7.5), 2 mM adipate semialdehyde, 10 mM MgCl2, 1 mM ATP and 1 mM NADPH. The enzyme activity assay reaction was initiated by adding purified carboxylate reductase and phosphopantetheine transferase or the empty vector control to the assay buffer containing the adipate semialdehyde and then incubated at room temperature for 20 min. The consumption of NADPH was monitored by absorbance at 340 nm.

[2] = carboxylate reductase enzyme activity assay (adipate to adipate semialdehyde); assay type: biochemical; details: purified enzyme enhanced by sfp gene product; 2 mM adipate; room temperature, 20 min; against empty vector control (FIG. 12)
Method: A sequence encoding a HIS-tag was added to the genes from Segniliparus rugosus and Segniliparus rotundus that encode the carboxylate reductases of SEQ ID NOs: 4 and 6, respectively (see FIG. 9), such that N-terminal HIS tagged carboxylate reductases could be produced. Each of the modified genes was cloned into a pET Duet expression vector along with a sfp gene encoding a HIS-tagged phosphopantetheine transferase from Bacillus subtilis, both under the T7 promoter. Each expression vector was transformed into a BL21[DE3] E. coli host and the resulting recombinant E. coli strains were cultivated at 37° C. in a 250 mL shake flask culture containing 50 mL LB media and antibiotic selection pressure, with shaking at 230 rpm. Each culture was induced overnight at 37° C. using an auto-induction media.
The pellet from each induced shake flask culture was harvested via centrifugation. Each pellet was resuspended and lysed via sonication, and the cell debris was separated from the supernatant via centrifugation. […]
Enzyme activity assays (i.e., from adipate to adipate semialdehyde) were performed in triplicate in a buffer composed of a final concentration of 50 mM HEPES buffer (pH=7.5), 2 mM adipate, 10 mM MgCl2, 1 mM ATP and 1 mM NADPH. […] The consumption of NADPH was monitored by absorbance at 340 nm.

B1: SEQ ID NO 6: Segniliparus rotundus carboxylate reductase (Genbank Accession No. ADG98140.1) (protein, listed as Segniliparus rotundus)
chain: MTQSHTQGPQASAAHSRLARRAAELLATDPQAAATLPDPEVVRQATRPGLRLAERVDAILSGYADRPALGQRSFQTVKDPITGRSSVELLPTFDTITYRELRERATAIASDLAHHPQAPAKPGDFLASIGFISVDYVAIDIAGVFAGLTAVPLQTGATLATLTAITAETAPTLFAASIEHLPTAVDAVLATPSVRRLLVFDYRAGSDEDREAVEAAKRKIADAGSSVLVDVLDEVIARGKSAPKAPLPPATDAGDDSLSLLIYTSGSTGTPKGAMYPERNVAHFWGGVWAAAFDEDAAPPVPAINITFLPLSHVASRLSLMPTLARGGLMHFVAKSDLSTLFEDLKLARPTNLFLVPRVVEMLYQHYQSELDRRGVQDGTREAEAVKDDLRTGLLGGRILTAGFGSAPLSAELAGFIESLLQIHLVDGYGSTEAGPVWRDGYLVKPPVTDYKLIDVPELGYFSTDSPHPRGELAIKTQTILPGYYKRPETTAEVFDEDGFYLTGDVVAQIGPEQFAYVDRRKNVLKLSQGEFVTLAKLEAAYSSSPLVRQLFVYGSSERSYLLAVIVPTPDALKKFGVGEAAKAALGESLQKIARDEGLQSYEVPRDFIIETDPFTVENGLLSDARKSLRPKLKEHYGERLEAMYKELADGQANELRDIRRGVQQRPTLETVRRAAAAMLGASAAEIKPDAHFTDLGGDSLSALTFSNFLHDLFEVDVPVGVIVSAANTLGSVAEHIDAQLAGGRARPTFATVHGKGSTTIKASDLTLDKFIDEQTLEAAKHLPKPADPPRTVLLTGANGWLGRFLALEWLERLAPAGGKLITIVRGKDAAQAKARLDAAYESGDPKLAGHYQDLAATTLEVLAGDFSEPRLGLDEATWNRLADEVDFISHPGALVNHVLPYNQLFGPNVAGVAEIIKLAITTRIKPVTYLSTVAVAAGVEPSALDEDGDIRTVSAERSVDEGYANGYGNSKWGGEVLLREAHDRTGLPVRVFRSDMILAHQKYTGQVNATDQFTRLVQSLLATGLAPKSFYELDAQGNRQRAHYDGIPVDFTAESITTLGGDGLEGYRSYNVFNPHRDGVGLDEFVDWLIEAGHPITRIDDYDQWLSRFETSLRGLPESKRQASVLPLLHAFARPGPAVDGSPFRNTVFRTDVQKAKIGAEHDIPHLGKALVLKYADDIKQLGLL
[1]
  carboxylate reductase activity: acceptance of adipate semialdehyde as substrate (consumption of NADPH, absorbance at 340 nm): accepted adipate semialdehyde as substrate
[2]
  carboxylate reductase activity: acceptance of adipate as substrate (consumption of NADPH, absorbance at 340 nm): accepted adipate as substrate
